Experimental data taken from US6429304 (University of California, dated 2002).

Target: T1, p80 delta 560-690 (S. purpuratus p80 katanin lacking the C-terminal 130 amino acids), in vitro translated … (Strongylocentrotus purpuratus, UniProt O61585 1-559)
T1 construct: The residues kept are derived from the deletion named; also called delta 560-690 derivative of p80; not shown: 37 amino acid N-terminal S-Tag from pCITE-4a+ (Novagen)
T1 sequence: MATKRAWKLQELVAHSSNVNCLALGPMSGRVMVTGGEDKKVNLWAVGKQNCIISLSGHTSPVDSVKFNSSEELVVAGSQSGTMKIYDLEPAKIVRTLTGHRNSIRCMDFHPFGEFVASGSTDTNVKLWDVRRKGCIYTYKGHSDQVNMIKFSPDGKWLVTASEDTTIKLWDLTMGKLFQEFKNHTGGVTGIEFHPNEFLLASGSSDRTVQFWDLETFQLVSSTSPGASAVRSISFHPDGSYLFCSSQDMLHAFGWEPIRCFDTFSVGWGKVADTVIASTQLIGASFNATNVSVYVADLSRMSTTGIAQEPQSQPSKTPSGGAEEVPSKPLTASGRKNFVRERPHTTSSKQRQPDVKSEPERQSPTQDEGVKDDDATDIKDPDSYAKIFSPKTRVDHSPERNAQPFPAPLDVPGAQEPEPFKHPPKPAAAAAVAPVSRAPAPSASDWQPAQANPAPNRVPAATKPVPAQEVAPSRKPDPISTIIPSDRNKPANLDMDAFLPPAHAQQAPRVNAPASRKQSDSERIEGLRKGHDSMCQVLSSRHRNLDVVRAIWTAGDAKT
Assay: co-translation in rabbit reticulocyte lysate, immunoprecipitation with anti-p60 antibody
Protocol: In vitro synthesis of proteins directly from plasmid DNAs was accomplished using the Single Tube Protein System 2, T7 (Novagen). […] For immunoprecipitations, lysates were incubated on ice with Pansorbin (Calbiochem)-antibody complexes, washed in NET buffer (50 mM Tris-Cl (pH 7.5), 150 mM NaCl, 0.1% Nonidet P40, 1 mM EDTA (pH 8.0), 0.25% gelatin and 0.02% sodium azide), then resuspended in SDS-PAGE sample buffer. In vitro translation products in both the pellets and supernatants from the immunoprecipitations were resolved by SDS-PAGE, transferred to nitrocellulose, probed with S-protein HRP conjugate (Novagen) and detected by chemiluminescence.

B1: in vitro translated S. purpuratus p60 katanin with 37 amino acid N-terminal S-Tag (enzyme)
chain: MSVDEICENTKMGREYALLGNYETSLVYYQGVLQQIQKLLTSVHEPQRKHQWQTIRQELSQEYEHVKNITKTLNGFKSEPAAPEPAPNHRAAPFSHHQHAAKPAAAEPARDPDVWPPPTPVDHRPSPPYQRAARKDPPRRSEPSKPANRAPGNDRGGRGPSDRRGDARSGGGGRGGARGSDKDKNRGGKSDKDKKAPSGEEGDEKKFDPAGYDKDLVENLERDIVQRNPNVHWADIAGLTEAKRLLEEAVVLPLWMPDYFKGIRRPWKGVLMVGPPGTGKTMLAKAVATECGTTFFNVSSASLTSKYHGESEKLVRLLFEMARFYAPSTIFIDEIDSICSKRGTGSEHEASRRVKSELLIQMDGVSGPSAGEESSKMVMVLAATNFPWDIDEALRRRLEKRIYIPLPEIDGREQLLRINLKEVPLADDIDLKSIAEKMDGYSGADITNVCRDASMMAMRRRIQGLRPEEIRHIPKEELNQPSTPADFLLALQKVSKSVGKEDLVKYMAWMEEFGSV
notes: Made in a rabbit reticulocyte coupled transcription-translation reaction; not shown: 37 amino acid N-terminal S-Tag from pCITE-4a+ (Novagen)
binding result: no binding
